Experimental data taken from the supplement of paper PMC9170038.

Test system: MS2 coat protein
Assay: apparent KD of MS2 coat protein; designed switch direction (-1 OFF switch, 1 ON switch): 1; higher = weaker reporter binding
Procedure, shortened: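 On Illumina chips, designed RNA switches with common flanks were made by stalled E. coli RNA polymerase. Titrations with SNAP-549-labelled MS2 coat protein, doubling from 0.7 or 1.5 nM to 3 µM, were done with no input, with 200 uM small-molecule ligand, or with an oligonucleotide input. Apparent KD is the median per design over clusters, from curve fits of normalised cluster fluorescence.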

[1] = Eterna round: R95, input ligand: FMN 200 uM
[2] = Eterna round: R95, input ligand: microRNA oligo, concentration not stated
[3] = Eterna round: R95, input ligand: none
[4] = input ligand: microRNA oligo, concentration not stated

Sequence | apparent KD of MS2 coat protein [1] [nM] | apparent KD of MS2 coat protein [2] [nM] | apparent KD of MS2 coat protein [3] [nM] | apparent KD of MS2 coat protein (input ligand: FMN 200 uM) [nM] | apparent KD of MS2 coat protein [4] [nM] | apparent KD of MS2 coat protein (input ligand: none) [nM]
UUUUUAUAACAUGAGGAUCACCCAUGUGCGCGCACAAGGUUGUUGCUCGUCUUAUUUUUUUUUUUUUUUUUUUUUUU [viviankchen2] (puzzle: Sensor for hsa-mir-208a version 2) | 33.2 | 220 | 44.1 | – | – | –
AGUCCAGCCUGAGCUGGACAAAAGCAUGUACAUGAGGAUCACCCAUGUUCAUGUGCAAGCUUUUUGCUCGUCUUAAA [Zipper 52 - 4] (Eterna round: R96, puzzle: Sensor for hsa-mir-208a) | – | – | – | 71.5 | 10.7 | 69.8
GUUAAACAUGAGGAUCACCCAUGUCAUCUAAGUCGAGGAUAUGGGAAUUAAUUAAUUAAACCAGAAGGCGAAAAUU [Mat - Same State 1 - D95] (puzzle: Same State 1) | 59.7 | 756 | 1110 | – | – | –
GGAGCCGGCACCGAGGAUAUUCGUAUUAAAACAUGAGGAUCACCCAUGUAGGCCAGAAGGCCUUGGGAGAAGGCGGAUCGGCUCG [Xeonanis - 2] (puzzle: Same State 2) | 12.4 | 65.2 | 106 | – | – | –
UGUUUGUUGUGAGGAUAUACAUACACCUUACAUGAGGAUCACCCAUGUUGUUACUUUGAUAGUUAGUAGAAGGCACUUGGUUAU [JR_SSNG2_Sub047] (Eterna round: R96, puzzle: Same State NG 2) | – | – | – | 94.9 | 91.6 | 140
GUUACAUGAGGAUCACCCAUGUAUGUGUGGGAGUAAGUGUCUUAGGAUAUCUAGUUUUUAAUUUAAGAGAAGGAAGAUUGUUGU [JMF's solution 52] (Eterna round: R96, puzzle: Same State NG 3) | – | – | – | 151 | 67.2 | 114
CCAGGACAUGAGGAUCACCCAUGUGCUUAAUGUGGAGAAUCUCAGGAUAUCAUGAGGAUCACCCAUGAGAAGGGAGAUCCGAGG (Eterna round: R96, puzzle: Same State NG 3) | – | – | – | 573 | 234 | 398
GAGGAUGAUUUACAGGAUAUAUAGCAGAUGACAUGAGGAUCACCCAUGUAAGAGAAAGGAGGGAGAUAGAAGGGUAUGGGAGGUG [JR_SS2_Sub038] (puzzle: Same State 2) | 29.3 | 35.4 | 43.5 | – | – | –
UGGAUCUAGGCUUGCCUGGGUCCAUGCUGACAUGAGGAUCACCCAUGUGCAUUCUAUAAGCUUUUUGUUUGUCAGCU (puzzle: Sensor for hsa-mir-208a) | 360 | 25.1 | 411 | – | – | –
GGACGUCGAUAAUAUAACUUCACAUGAGGAUCACCCAUGUCACAGGAUAUGGAUCCUAAUUGGAUCCAGAAGGGUGCGACGUCC [Fiskers NG3ss - 36] (Eterna round: R96, puzzle: Same State NG 3) | – | – | – | 20.7 | 61.8 | 88.8
UUGAGAAAUUAAGGAUAUUGAGUACAUAUGUUUAACAUGAGGAUCACCCAUGUGGGUUGCGGUAUCGAGAAGGUAAAUUACUAG [Mat - same State NG 2 - JL mod - D72] (Eterna round: R96, puzzle: Same State NG 2) | – | – | – | 138 | 64.7 | 112
AACAGUCGGCGAGGAUAUGGACGUACAGGUUUGCCUGUGCGGCUCACAUGAGGAUCACCCAUGUUCUAGAAGGCGCCACUGAGA [Lausrein] (Eterna round: R96, puzzle: Same State NG 2) | – | – | – | 19.9 | 48.8 | 81.2
CCGAUUUAUGGAGGAUAUGGAGCCUUAUUGGCUCCAGAAGGUCAAUAACAUGAGGAUCACCCAUGUACGGCGGUCAAUAGACCG [Eli NG1ss - 70] (Eterna round: R96, puzzle: Same State NG 1) | – | – | – | 24.8 | 28.1 | 34.6
GGUCCGGCCUGAGCUGGACCGAAGCAUGUACAUGAGGAUCACCCAUGUUCAUGUGCAGGCUUUUUGCUCGUCUUGUG [JL-shm-2.05 JL mod] (puzzle: Sensor for hsa-mir-208a) | 91.7 | 12.7 | 106 | – | – | –
GGUCCCUACGCACAGGAUAUUCUUUUGGCAACAUGAGGAUCACCCAUGUGUGCCGAUCAUGGUUAGAAGAAGGGUGGUAAGGACG [Qucesosobe] (puzzle: Same State 2) | 9.76 | 10.8 | 12.2 | – | – | –
ACAUGAGACCAAGGAUAUUUUGUACCUACAUGUGACAUGAGGAUCACCCAUGUGGUAAGUAUGAGGGAGAAGGUGGAGAUAUGU [Equivalence 24 - Jieux - Same State NG 2] (Eterna round: R96, puzzle: Same State NG 2) | – | – | – | 54.3 | 48.7 | 73.7

Sequence | apparent KD of MS2 coat protein [1] [nM] | apparent KD of MS2 coat protein [2] [nM] | apparent KD of MS2 coat protein [3] [nM] | apparent KD of MS2 coat protein (input ligand: FMN 200 uM) [nM] | apparent KD of MS2 coat protein [4] [nM] | apparent KD of MS2 coat protein (input ligand: none) [nM]
GGGCCAGCUUGUGCUGGGCCUUCGCUUGCACAUGAGGAUCACCCAUGUCGUGUACAUGCUUGGUGCCCGUCUUUCCC [Photon Torp-15] (puzzle: Sensor for hsa-mir-208a) | 182 | 49.2 | 201 | – | – | –
UGCAUACAUGAGGAUCACCCAUGUCAACGUAGCCGAGGAUAUGGAUUGCCGUGAGGCGUGCCAGAAGGCGGAGAGG [Same State 1 - Mod of Vinnie Teenbexe] (puzzle: Same State 1) | 29.1 | 42.5 | 59 | – | – | –
GUGGAGGGUUAAGGAUAUUGAAUACAUAUGUUUAACAUGAGGAUCACCCAUGUGGGUUGCGGUAUCGAGAAGGUAAAUUACUGG [salish99_SSNG2_r04_035] (Eterna round: R96, puzzle: Same State NG 2) | – | – | – | 192 | 151 | 133
GUGGGACAUGAGGAUCACCCAUGUGGGAGGGAACGAGGAUAUGUGAGGAGCGAGAAGUGAACAGAAGGCGUGGUUG [JR_SS1_Sub023] (puzzle: Same State 1) | – | 75.3 | – | – | – | –
CUGUGUUGCGGGCAGGAUAUGUAUUGGAAUACAUGAGGAUCACCCAUGUGCGGGUGUUUCACCCGACAGAAGGGCCAAUCGCGAC [JL-ss2-3.21 ViennaUCT mod] (puzzle: Same State 2) | – | 266 | – | – | – | –
GGUGUACAUGAGGAUCACCCAUGUCGACCGCUCACAGGAUAUUUAAUACAAACUGGUAGCGGAGAAGGGUGAGGAA [Oresbeve] (puzzle: Same State 1) | 164 | 95.7 | 247 | – | – | –
UGUUGUAUUACAGGAUAUCUAUGAUUUUUAUAUAGAGAAGGGUAUUCACAUGAGGAUCACCCAUGUAUAUACGAGGAAGUUGUG [JMF's solution 68] (Eterna round: R96, puzzle: Same State NG 1) | – | – | – | – | 39.6 | –
CUGCUCGGGUGAGGAUAUGCCGCCGUUUCGGCUGCAGAAGGUGCUACGUUACAUGAGGAUCACCCAUGUCUCUGUUGUUUCGUU [salish99_SSNG1_r04_965] (Eterna round: R96, puzzle: Same State NG 1) | – | – | – | 72.1 | 42.8 | 62.2
CGUCCGGCCUGUGCUGGCCGGUAGCUUGUACAUGAGGAUCACCCAUGUUCAUGUGCUGGCUUUUUGCUCGUCUUGUG [salish99_mir208a_017] (puzzle: Sensor for hsa-mir-208a) | 283 | 27.2 | 419 | – | – | –
AUAAGUUUGAUGCUCGUCUCUCCGUACAGACAUGAGGAUCACCCAUGUAGCCGGGAAGUAGCCCGACCAGUAUGGCC [Isriinus] (puzzle: Sensor for hsa-mir-208a) | 72.2 | 23.9 | 93.7 | – | – | –
UAUAAACAUGAGGAUCACCCAUGUAAUAAUAUGGGAGGAUAUCAGAAUUUAUUUAUUUAAUGAGAAGGCCUAAUAU [Mat - Same State 1 - Mod of Eli - D67] (puzzle: Same State 1) | 34.5 | 210 | 562 | – | – | –
UCGAGCGUACUUGCAGACAUGAGGAUCACCCAUGUAAAUGGGAAGGAUAUGGUACCGUUUCGGUACCAGAAGGUCCUAAGUGCU [salish99_SSNG3_r04_304] (Eterna round: R96, puzzle: Same State NG 3) | – | – | – | 166 | 862 | 1440
AAAGGAUGAUUAUACAUGAGGAUCACCCAUGUUUGUAAUACUAAGGAUAUGUGACUUAAUUGUGAACAGAAGGUAGGUUCAUGA [AK SSNG3-V2-1] (Eterna round: R96, puzzle: Same State NG 3) | – | – | – | 56.8 | 43.6 | 62.2
AAUAUUAAGGCGGACGUUAACCGCAACCGACAUGAGGAUCACCCAUGUGCUUCAAGCUCAGACAUCUCUUAUCGUCA [Arrizareat] (Eterna round: R96, puzzle: Sensor for hsa-mir-208a) | – | – | – | 84.3 | 59.4 | 79
AUAUGAGGAGCAGGAUAUGCGGAGAAGAAAGAAGCAGAAGGGCUCAUGGGACAACAUGAGGAUCACCCAUGUUCUCCGCGAUGA [AK SSNG1-V2-3.2] (Eterna round: R96, puzzle: Same State NG 1) | – | – | – | 80.2 | 298 | 523
